In IntAct's records for PubMed 31036956:

B1: Proto-oncogene Wnt-3 (Homo sapiens), P56703 (parent)
chain: MEPHLLGLLLGLLLGGTRVLAGYPIWWSLALGQQYTSLGSQPLLCGSIPGLVPKQLRFCRNYIEIMPSVAEGVKLGIQECQHQFRGRRWNCTTIDDSLAIFGPVLDKATRESAFVHAIASAGVAFAVTRSCAEGTSTICGCDSHHKGPPGEGWKWGGCSEDADFGVLVSREFADARENRPDARSAMNKHNNEAGRTTILDHMHLKCKCHGLSGSCEVKTCWWAQPDFRAIGDFLKDKYDSASEMVVEKHRESRGWVETLRAKYSLFKPPTERDLVYYENSPNFCEPNPETGSFGTRDRTCNVTSHGIDGCDLLCCGRGHNTRTEKRKEKCHCIFHWCCYVSCQECIRIYDVHTCK

Variants of: B1
Settings: with lrp6_human LRP6, O75581
Sequence of lrp6_human LRP6, O75581 (O75581 whole entry): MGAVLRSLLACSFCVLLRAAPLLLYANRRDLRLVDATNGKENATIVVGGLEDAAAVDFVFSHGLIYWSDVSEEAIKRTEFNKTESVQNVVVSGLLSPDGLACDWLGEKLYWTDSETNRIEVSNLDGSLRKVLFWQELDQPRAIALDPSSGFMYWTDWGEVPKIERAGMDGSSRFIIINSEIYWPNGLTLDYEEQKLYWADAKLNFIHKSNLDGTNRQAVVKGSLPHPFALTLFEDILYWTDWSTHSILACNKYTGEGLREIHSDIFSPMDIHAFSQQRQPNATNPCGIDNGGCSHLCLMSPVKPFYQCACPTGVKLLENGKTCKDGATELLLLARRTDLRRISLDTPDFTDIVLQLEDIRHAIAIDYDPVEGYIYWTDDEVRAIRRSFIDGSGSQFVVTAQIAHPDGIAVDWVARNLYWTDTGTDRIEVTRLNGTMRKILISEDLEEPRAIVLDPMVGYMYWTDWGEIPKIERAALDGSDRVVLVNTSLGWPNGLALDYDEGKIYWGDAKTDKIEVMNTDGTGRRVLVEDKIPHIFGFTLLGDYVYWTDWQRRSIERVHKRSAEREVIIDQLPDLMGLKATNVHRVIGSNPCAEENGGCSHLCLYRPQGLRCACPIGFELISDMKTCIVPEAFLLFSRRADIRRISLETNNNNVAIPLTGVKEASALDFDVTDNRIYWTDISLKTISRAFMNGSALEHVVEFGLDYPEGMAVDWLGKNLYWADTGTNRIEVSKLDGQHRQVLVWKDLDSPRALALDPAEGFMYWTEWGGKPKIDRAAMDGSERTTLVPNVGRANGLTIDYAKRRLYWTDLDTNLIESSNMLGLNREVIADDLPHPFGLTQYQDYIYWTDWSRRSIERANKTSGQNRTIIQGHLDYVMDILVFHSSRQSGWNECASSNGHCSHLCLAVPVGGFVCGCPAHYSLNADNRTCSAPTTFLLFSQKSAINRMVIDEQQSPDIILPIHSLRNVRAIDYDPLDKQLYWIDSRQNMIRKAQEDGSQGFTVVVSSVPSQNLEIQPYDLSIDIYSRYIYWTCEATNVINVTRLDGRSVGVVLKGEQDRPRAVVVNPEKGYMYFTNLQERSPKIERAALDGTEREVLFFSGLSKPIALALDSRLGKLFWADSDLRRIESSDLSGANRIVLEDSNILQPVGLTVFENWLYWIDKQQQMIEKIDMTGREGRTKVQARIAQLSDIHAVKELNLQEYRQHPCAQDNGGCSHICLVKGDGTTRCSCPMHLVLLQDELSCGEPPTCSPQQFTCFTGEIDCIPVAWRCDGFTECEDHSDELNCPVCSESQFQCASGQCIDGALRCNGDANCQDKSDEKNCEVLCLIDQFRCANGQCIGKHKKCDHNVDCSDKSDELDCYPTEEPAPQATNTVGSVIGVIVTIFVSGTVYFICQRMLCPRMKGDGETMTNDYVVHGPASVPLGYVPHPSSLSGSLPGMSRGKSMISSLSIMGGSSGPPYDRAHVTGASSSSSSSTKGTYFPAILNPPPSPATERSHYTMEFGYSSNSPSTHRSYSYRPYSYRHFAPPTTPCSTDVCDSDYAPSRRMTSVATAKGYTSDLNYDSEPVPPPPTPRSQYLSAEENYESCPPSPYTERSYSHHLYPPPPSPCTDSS

effect of a mutation on the interaction	Variant
disrupting interaction	MEPHLLGLLLGLLLGGTRVLAGYPIWWSLALGQQYTSLGSQPLLCGSIPGLVPKQLRFCRNYIEIMPSVAEGVKLGIQECQHQFRGRRWNCTTIDDSLAIFGPVLDKATRESAFVHAIASAGVAFAVTRSCAEGTSTICGCDSHHKGPPGEGWKWGGCSEDADFGVLVSREFADARENRPDARSAMNKHNNEAGRTTILDHMHLKCKCHGLSGSCEVKTCWWAQPDFRAIGDFLKDKYDSASEMVVEKHRESEGWVETLRAKYSLFKPPTERDLVYYENSPNFCEPNPETGSFGTRDRTCNVTSHGIDGCDLLCCGRGHNTRTEKRKEKCHCIFHWCCYVSCQECIRIYDVHTCK [R253E]
